Data published in patent publication US20210032351A1 (XDCEXPLORER SHANGHAI, published 2021).
Like-named read-outs stand apart in the source and are kept apart here. Each block holds one binder with its values, some of them ahead of it.

Tests used:
[1] = biological target: T1, human wild-type EGFR protein on the cell surface (human, UniProt P00533 25-1210); assay: FACS on CHOk1-EGFR cells
T1 construct: whole, on cells; Endogenous on A431, HEB, U87MG cells and normal human primary hepatocytes; transfected on CHOk1-EGFR cells; The cell is named under assay; also called A431; HEB
Description: The cells are washed twice with the HBSS buffer and are counted, and then the cells are diluted with the HBSS buffer to 2×10⁶ cells/ml, added with 1% goat serum blocking solution, with the percentage being the mass percentage, and incubated on ice for 30 minutes, and then centrifugally washed twice with the HBSS buffer. The collected cells are suspended to 2×10⁶ cells/mL with an FACS buffer (HBSS+1% BSA, with the percentage being the mass percentage), added to a 96-well FACS reaction plate at 100 μL/well, then added with 100 μL/well of the purified EGFRvIII antibody (samples to be tested) obtained in example 2, and incubated on ice for 2 hours. The plate is centrifugally washed twice with the FACS buffer, added with 100 μL/well of a fluorescence (Alexa 488) labeled secondary antibody (purchased from Invitrogen), and then incubated on ice for 1 hour. The plate is centrifugally washed 3 times with the FACS buffer, added with 100 μL/well of a fixing solution [4% (v/v) paraformaldehyde] for suspending the cells, and centrifugally washed twice with the FACS buffer after 10 minutes. The cells are suspended in 100 μL of the FACS buffer, and the results are detected and analyzed by FACS (FACS Calibur, purchased from BD). Data analysis is performed by using the software (CellQuest) to obtain the mean fluorescence intensity (MFI) of the cells. Data is further analyzed by using the software (GraphPad Prism5) to perform data fitting and calculate EC50. […] A431 cells (human epidermal cell cancer cell lines) have a large amount of wild-type EGFR protein expressed on the surface thereof. […] U87MG cells (human glioma cell lines) have a small amount of wild-type EGFR protein expressed on the surface thereof, while HEB cells (human glioma cell lines) have a high level of wild-type EGFR protein expression on the surface thereof.

[2] = biological target: T2, human EGFRvIII-hFc protein (human, UniProt P00533 25-645); assay: ELISA, EGFRvIII-hFc coated
T2 construct: extracellular domain; also called immunogen A; hFc-tagged EGFRvIII protein; not shown: human IgG Fc fragment (hFc) of the pCpC vector

[3] = biological target: T2, human EGFRvIII-hFc protein; assay: ELISA, EGFRvIII-hFc coated; weak binding, maximum OD450 0.79 against 3.03 for wild type and 0.08 for hIgG
Description: The plate is incubated for 2 hours at 37° C., and then washed 3 times with the plate washing solution [PBS+0.01% (v/v) Tween20]. The plate is added with an HRP (horseradish peroxidase) labeled secondary antibody (purchased from Sigma), incubated at 37° C. for 2 hours, and then washed 3 times with the plate washing solution [PBS+0.01% (v/v) Tween20]. The plate is added with 100 μl of TMB substrate/well, incubated for 30 minutes at room temperature, and then added with 100 μl of stopping solution (1.0N HCl)/well. A450 nm value is read using an ELISA plate reader (SpectraMax 384plus, purchased from Molecular Device), and the results are shown in FIG. 11 and table 19.

[4] = biological target: T3, human EGFRvIII protein on the cell surface (human, UniProt P00533 25-1210); assay: FACS on CHOk1-EGFRvIII cells
T3 construct: whole, on cells; the cell line is named under assay; also called hEGFRvIII; U87MG-hEGFRvIII
Description: The desired cells are subjected to an expanded culture to 90% confluence in a T-75 cell culture flask; the medium is sucked out, and the cells are washed twice with a HBSS buffer (Hanks Balanced Salt Solution) (purchased from Invitrogen), and then treated with an enzyme-free cell dissociation solution (Versene solution: purchased from Life Technology) and collected. The cells are washed twice with the HBSS buffer and are counted, and then the cells are diluted with the HBSS buffer to 2×10⁶ cells/ml, added with 1% goat serum blocking solution, with the percentage being the mass percentage, and incubated on ice for 30 minutes, and then centrifugally washed twice with the HBSS buffer. The collected cells are suspended to 2×10⁶ cells/mL with an FACS buffer (HBSS+1% BSA, with the percentage being the mass percentage), added to a 96-well FACS reaction plate at 100 μL/well, then added with 100 μL/well of the purified EGFRvIII antibody (samples to be tested) obtained in example 2, and incubated on ice for 2 hours. The plate is centrifugally washed twice with the FACS buffer, added with 100 μL/well of a fluorescence (Alexa 488) labeled secondary antibody (purchased from Invitrogen), and then incubated on ice for 1 hour. The plate is centrifugally washed 3 times with the FACS buffer, added with 100 μL/well of a fixing solution [4% (v/v) paraformaldehyde] for suspending the cells, and centrifugally washed twice with the FACS buffer after 10 minutes. The cells are suspended in 100 μL of the FACS buffer, and the results are detected and analyzed by FACS (FACS Calibur, purchased from BD). Data analysis is performed by using the software (CellQuest) to obtain the mean fluorescence intensity (MFI) of the cells. Data is further analyzed by using the software (GraphPad Prism5) to perform data fitting and calculate EC50. […] A431 cells (human epidermal cell cancer cell lines) have a large amount of wild-type EGFR protein expressed on the surface thereof.

[5] = biological target: T4, human EGFR protein (wild-type), on cells (human, UniProt P00533 25-1210); assay: FACS on A431 cells
T4 construct: whole, on cells; transfected on CHO-K1 cells; endogenous on the human cell lines; the cell is named under assay; also called wild-type EGFR; hEGFR
Description: (§1) The cells are washed twice with the HBSS buffer and are counted, and then the cells are diluted with the HBSS buffer to 2×10⁶ cells/ml, added with 1% goat serum blocking solution, with the percentage being the mass percentage, and incubated on ice for 30 minutes, and then centrifugally washed twice with the HBSS buffer. The collected cells are suspended to 2×10⁶ cells/mL with an FACS buffer (HBSS+1% BSA, with the percentage being the mass percentage), added to a 96-well FACS reaction plate at 100 μL/well, then added with 100 μL/well of the purified EGFRvIII antibody (samples to be tested) obtained in example 2, and incubated on ice for 2 hours. The plate is centrifugally washed twice with the FACS buffer, added with 100 μL/well of a fluorescence (Alexa 488) labeled secondary antibody (purchased from Invitrogen), and then incubated on ice for 1 hour. […] The cells are suspended in 100 μL of the FACS buffer, and the results are detected and analyzed by FACS (FACS Calibur, purchased from BD). Data analysis is performed by using the software (CellQuest) to obtain the mean fluorescence intensity (MFI) of the cells. Data is further analyzed by using the software (GraphPad Prism5) to perform data fitting and calculate EC50. […]

[6] = biological target: T5, human EGFRvIII-hFc protein (human, UniProt P00533 25-645); assay: ELISA, coated EGFRvIII-hFc, antibody 0.0001 nM
T5 construct: extracellular domain; made in HEK293 cells, purified on protein A; also called immunogen A; hFc-tagged EGFRvIII protein; not shown: human IgG Fc fragment (hFc) of the pCpC vector
Procedure, shortened: (§2)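 Read-out is A450 nm after TMB development (30 min, room temperature) stopped with 1.0N HCl. Plates carried EGFRvIII-hFc at 1.0 μg/mL and were incubated with purified antibody, then HRP secondary, each 2 h at 37° C.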

[7] = biological target: T5, human EGFRvIII-hFc protein; assay: ELISA, coated EGFRvIII-hFc, antibody 0.001 nM
Procedure, shortened: as §2

[8] = biological target: T5, human EGFRvIII-hFc protein; assay: ELISA, coated EGFRvIII-hFc, antibody 10 nM
Procedure, shortened: as §2

[9] = biological target: T5, human EGFRvIII-hFc protein; assay: ELISA, plate coated with human EGFRvIII-hFc, HRP secondary antibody, absorbance at 450 nm
Description: (§3) The purified immunogen A (EGFRvIII-hFc) obtained in example 1 (for the preparation method, see step (I) in example 1) is diluted with PBS to a final concentration of 1.0 μg/mL, and then added to a 96-well ELISA plate at 100 μl/well. The plate is sealed with a plastic film and incubated at 4° C. overnight. The next day, the plate is washed twice with a plate washing solution [PBS+0.01% (v/v) Tween20], and added with a blocking solution [PBS+0.01% (v/v) Tween20+1% (w/w) BSA] for blocking 2 hours at room temperature. The blocking solution is discarded, and the purified EGFRvIII antibody obtained in example 2 is added at 100 μl/well. The plate is incubated for 2 hours at 37° C., and then washed 3 times with the plate washing solution [PBS+0.01% (v/v) Tween20]. The plate is added with an HRP (horseradish peroxidase) labeled secondary antibody (purchased from Sigma), incubated at 37° C. for 2 hours, and then washed 3 times with the plate washing solution [PBS+0.01% (v/v) Tween20]. The plate is added with 100 μl of TMB substrate/well, incubated for 30 minutes at room temperature, and then added with 100 μl of stopping solution (1.0N HCl)/well. A450 nm value is read using an ELISA plate reader (SpectraMax 384plus, purchased from Molecular Device), and the results are shown in FIG. 6 and table 10.

[10] = biological target: T5, human EGFRvIII-hFc protein; assay: ELISA, coated EGFRvIII-hFc, antibody 0.01 nM
Procedure, shortened: as §2

[11] = biological target: T5, human EGFRvIII-hFc protein; assay: ELISA, coated EGFRvIII-hFc, antibody 0.1 nM
Procedure, shortened: as §2

[12] = biological target: T5, human EGFRvIII-hFc protein; assay: ELISA, coated EGFRvIII-hFc, antibody 100 nM
Procedure, shortened: as §2

[13] = biological target: T5, human EGFRvIII-hFc protein; assay: ELISA, coated EGFRvIII-hFc, antibody 1 nM
Procedure, shortened: as §2

[14] = biological target: T1, human wild-type EGFR protein on the …; assay: FACS on A431 cells
Description: as §1

[15] = biological target: T3, human EGFRvIII protein on the cell …; assay: FACS on U87MG-hEGFRvIII cells
[16] = biological target: T4, human EGFR protein (wild-type), on cells; assay: FACS on HFF-1, HFL-I, QSG-7701, HEEC, HEB, WPMY-1 and MCF-10A cells
[17] = biological target: T5, human EGFRvIII-hFc protein; assay: ELISA, plate coated with human EGFRvIII-hFc, HRP secondary antibody, absorbance at 450 nm; remark: listed apart in the source
Description: as §3, with “temperature. […]” for “temperature. The blocking solution is discarded, and the purified EGFRvIII antibody obtained in example 2 is added at 100 μl/well.”, “FIG. 11” for “FIG. 6”, “table 19.” for “table 10.”

- binding result [14]: no binding
- EC50 [15]: 1.9 nM
- OD450 nm at 0.0001 nM antibody [2]: 0.09 OD450
- OD450 nm at 0.001 nM antibody [2]: 0.08 OD450
- OD450 nm at 0.01 nM antibody [2]: 0.19 OD450
- OD450 nm at 0.1 nM antibody [2]: 1.18 OD450
- OD450 nm at 1 nM antibody [2]: 3.45 OD450
- OD450 nm at 10 nM antibody [2]: 3.63 OD450
- OD450 nm at 100 nM antibody [2]: 3.6 OD450
B3: Chimeric antibody 7E5 (antibody, human IgG1, V domains shown)
VH: EIQLQQSGPELVKPGASVKVSCKASGYSFTDYNMYWVKQSHGKSLEWIGYVDPSNGGTNYNQKFKGKATLTVDKSSSTAFMHLNSLTSEDSAVYYCARGFFDYWGQGTTLTVSS
VL: DIVMTQSPSSLTVTAGEKVTMSCKSSQSLLNSGNQKNYLTWYQQKPGQPPKLLIYWASNRESGVPDRFTGSGSGKDFTLTISSVQAEDLAVYYCQNDYRYPVTFGAGTKLELK
notes: also called clone 7E5-2A9

- binding result [16]: no binding
- EC50 (read off the curve) [17]: ~0.03 nM
B4: Chimeric antibody 7E5 (antibody, human IgG1, V domains shown)
VH: EIQLQQSGPELVKPGASVKVSCKASGYSFTDYNMYWVKQSHGKSLEWIGYVDPSNGGTNYNQKFKGKATLTVDKSSSTAFMHLNSLTSEDSAVYYCARGFFDYWGQGTTLTVSS
VL: DIVMTQSPSSLTVTAGEKVTMSCKSSQSLLNSGNQKNYLTWYQQKPGQPPKLLIYWASNRESGVPDRFTGSGSGKDFTLTISSVQAEDLAVYYCQNDYRYPVTFGAGTKLELK
notes: also called 7E5-2A9 (chimeric)

Second part, the binder before the results:

B1: c75G7C6-4 (antibody, human IgG1, V domains shown)
VH: EVQLQQSGPELVKPGASVKIPCKASGYTFTDYNMDWVKQSHGKSLEWIGDINPNNGDTIYNQKFKGKATLTVDKSSSTAYMELRSLTSEDTAVYYCARGDYSGYYPVYYAMDYWGQGTSVTVSS
VL: ENVLTQSPAIMSASPGEKVTMTCRASSSVSSSYLHWYQQKSGASPKLWIFSTSNLAAGVPARFSGSGSGTSYSLTVSSVEAEDAATYYCQQYSGYPLTFGAGTKLELK
notes: Chimeric 75G7C6 with DG of heavy chain CDR3 mutated to SG; Human IgG1/kappa; also called mutant chimeric antibody DG/SG
- Maximum mean fluorescence intensity [1]: 8970 MFI
- Maximum OD450 value [2]: 0.79 OD450
- EC50 [3]: 7.94 nM
- EC50 [4]: 24 nM
- Maximum mean fluorescence intensity [4]: 52600 MFI

B2: Murine anti-7E5 (antibody, V domains shown)
VH: EIQLQQSGPELVKPGASVKVSCKASGYSFTDYNMYWVKQSHGKSLEWIGYVDPSNGGTNYNQKFKGKATLTVDKSSSTAFMHLNSLTSEDSAVYYCARGFFDYWGQGTTLTVSS
VL: DIVMTQSPSSLTVTAGEKVTMSCKSSQSLLNSGNQKNYLTWYQQKPGQPPKLLIYWASNRESGVPDRFTGSGSGKDFTLTISSVQAEDLAVYYCQNDYRYPVTFGAGTKLELK
notes: murine hybridoma antibody; also called 7E5-2A9; murine anti-7E5-2
- binding result [5]: no binding
- OD450 nm [6]: 0.15
- OD450 nm [7]: 0.17
- OD450 nm [8]: 3.14
- EC50 (read off the curve) [9]: ~0.02 nM
- OD450 nm [10]: 0.35
- OD450 nm [11]: 1.68
- OD450 nm [12]: 3.36
- OD450 nm [13]: 3.18
